Patent US20250152717A1 (published 2025)

Target: T1, KRAS G12V (same sequence in NRAS and HRAS G12V) peptide on HLA-A*11:01 (human)
T1 peptide: VVGAVGVGK
Assay: stated without data

B1: TCR 11N6 (TCR, V domains shown)
Valpha: QQGEEDPQALSIQEGENATMNCSYKTSINNLQWYRQNSGRGLVHLILIRSNEREKHSGRLRVTLDTSKKSSSLLITASRAADTASYFCATDPMNTNAGKSTFGDGTTLTVKP
Vbeta: GVAQSPRYKIIEKRQSVAFWCNPISGHATLYWYQQILGQGPKLLIQFQNNGVVDDSQLPKDRFSAERLKGVDSTLKIQPAKLEDSAVYLCASSPYGGSVSYEQYFGPGTRLTVT
B1: recognises.
